Test results as given in publication PMC9394431 (Cell, 2022).

Biological target: T1, α1β2γ2 GABAA receptor (Homo sapiens)
T1 chain 1: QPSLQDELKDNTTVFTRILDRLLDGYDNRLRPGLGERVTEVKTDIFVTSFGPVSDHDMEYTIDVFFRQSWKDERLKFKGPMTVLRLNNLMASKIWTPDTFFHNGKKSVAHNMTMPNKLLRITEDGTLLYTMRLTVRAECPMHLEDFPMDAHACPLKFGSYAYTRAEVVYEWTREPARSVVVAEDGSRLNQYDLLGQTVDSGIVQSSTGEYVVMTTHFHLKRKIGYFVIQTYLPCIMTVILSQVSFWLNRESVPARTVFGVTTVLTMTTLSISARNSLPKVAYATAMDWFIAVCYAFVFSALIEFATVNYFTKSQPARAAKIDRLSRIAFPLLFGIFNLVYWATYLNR
T1 chain 2: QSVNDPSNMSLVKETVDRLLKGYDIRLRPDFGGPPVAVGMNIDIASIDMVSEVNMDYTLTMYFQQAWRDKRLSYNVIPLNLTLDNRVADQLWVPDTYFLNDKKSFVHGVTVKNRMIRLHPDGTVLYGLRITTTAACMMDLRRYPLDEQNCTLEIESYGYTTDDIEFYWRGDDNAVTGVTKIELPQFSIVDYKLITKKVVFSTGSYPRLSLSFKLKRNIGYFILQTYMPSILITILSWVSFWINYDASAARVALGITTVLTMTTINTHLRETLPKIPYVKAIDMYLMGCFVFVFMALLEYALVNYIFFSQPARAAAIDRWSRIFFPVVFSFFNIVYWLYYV
T1 chain 3: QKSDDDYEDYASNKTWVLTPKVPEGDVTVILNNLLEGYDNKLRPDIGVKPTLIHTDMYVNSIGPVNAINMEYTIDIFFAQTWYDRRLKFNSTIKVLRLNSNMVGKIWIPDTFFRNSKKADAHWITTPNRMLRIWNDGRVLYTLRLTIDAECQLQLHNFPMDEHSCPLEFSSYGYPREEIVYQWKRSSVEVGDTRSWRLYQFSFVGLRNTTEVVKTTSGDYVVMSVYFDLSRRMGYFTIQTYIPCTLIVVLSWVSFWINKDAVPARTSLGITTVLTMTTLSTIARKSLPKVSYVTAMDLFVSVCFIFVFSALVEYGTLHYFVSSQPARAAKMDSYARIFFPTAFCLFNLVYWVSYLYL
Experiment: SEC

- stoichiometry N: 1 Fab per receptor
B1: Fab175 (Fab, V domains shown)
VH: EVQLLESGEGLVQPGGSLRLSCAASGFTFKTYAMSWVRQAPGKGLEWVSAISGSGASTYYADFVEGRFTISRDNSKNTLYLQMNSLRAEDTAVYYCAKEPPAMVWFGGGYFDYWGQGTLVTVSS
VL: EIVLTQSPATLSLSPGERATLSCRASQSVSSYLAWYQQKPGQAPRLLIYDASNRATGIPARFSGSGSGTDFTLTISSLEPEDFAVYYCQQRSNWPPYSFGQGTKLEIK
